Laboratory results taken from patent publication US12723078.
pKd: −log10 of the molar value.

Key:
[1] = molecular target: recombinant LILRB1 (human) (UniProt Q8NHL6); assay: ELISA, control
[2] = molecular target: recombinant LILRB1 (human) (UniProt Q8NHL6); assay: Octet RED96, LILRB1 at 100, 33.3, 11.1 and 3.7 nM
[3] = molecular target: LILRA1 on reporter cells (UniProt O75019); assay: flow cytometry on 2B4 cells expressing the LILR, PE
[4] = molecular target: LILRB2 on reporter cells (UniProt Q8N423); assay: as above
[5] = molecular target: LILRB3 on reporter cells (UniProt O75022); assay: as above
[6] = molecular target: LILRA6 on reporter cells (UniProt Q6PI73); assay: as above
[7] = molecular target: LILRB4 on reporter cells (UniProt Q8NHJ6); assay: as above
[8] = molecular target: LILRB1 expressed on cell surface (human) (UniProt Q8NHL6); assay: as above
[9] = molecular target: LILRA5 on reporter cells (UniProt A6NI73); assay: as above
[10] = molecular target: LILRA4 on reporter cells (UniProt P59901); assay: as above
[11] = molecular target: LILRA2 on reporter cells (UniProt Q8N149); assay: as above
[12] = molecular target: LILRB5 on reporter cells (UniProt O75023); assay: as above
LILRB5 on reporter cells, sequence (O75023 24-590 limits assumed): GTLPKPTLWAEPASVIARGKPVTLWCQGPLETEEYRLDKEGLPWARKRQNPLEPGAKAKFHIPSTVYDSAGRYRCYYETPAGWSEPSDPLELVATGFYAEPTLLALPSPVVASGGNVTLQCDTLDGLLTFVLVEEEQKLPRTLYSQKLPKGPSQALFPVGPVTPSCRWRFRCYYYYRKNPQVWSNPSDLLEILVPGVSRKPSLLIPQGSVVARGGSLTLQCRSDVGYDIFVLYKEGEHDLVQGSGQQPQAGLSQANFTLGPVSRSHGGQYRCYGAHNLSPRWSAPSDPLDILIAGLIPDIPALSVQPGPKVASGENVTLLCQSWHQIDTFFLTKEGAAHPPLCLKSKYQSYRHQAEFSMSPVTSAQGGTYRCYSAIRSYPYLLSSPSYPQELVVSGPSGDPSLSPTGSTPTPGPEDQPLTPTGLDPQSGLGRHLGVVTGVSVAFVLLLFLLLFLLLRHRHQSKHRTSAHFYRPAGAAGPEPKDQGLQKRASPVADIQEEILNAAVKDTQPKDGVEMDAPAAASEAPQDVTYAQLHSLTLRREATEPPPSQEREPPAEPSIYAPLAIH

LILRA4 on reporter cells, sequence (P59901 24-499): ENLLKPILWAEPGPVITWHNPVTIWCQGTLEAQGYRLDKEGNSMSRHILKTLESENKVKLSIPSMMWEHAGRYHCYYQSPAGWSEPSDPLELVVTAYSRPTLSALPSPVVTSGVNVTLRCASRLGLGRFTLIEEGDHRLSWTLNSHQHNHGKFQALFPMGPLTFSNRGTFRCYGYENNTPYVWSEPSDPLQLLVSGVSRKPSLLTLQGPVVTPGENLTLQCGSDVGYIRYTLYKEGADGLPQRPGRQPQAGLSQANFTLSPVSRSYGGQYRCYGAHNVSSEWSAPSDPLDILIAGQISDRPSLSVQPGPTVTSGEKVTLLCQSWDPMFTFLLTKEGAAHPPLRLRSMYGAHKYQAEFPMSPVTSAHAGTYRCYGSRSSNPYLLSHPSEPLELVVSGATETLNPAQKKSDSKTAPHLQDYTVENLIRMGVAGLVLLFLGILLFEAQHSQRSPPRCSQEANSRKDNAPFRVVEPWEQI
recombinant LILRB1 (human), sequence (Q8NHL6 24-461 limits assumed): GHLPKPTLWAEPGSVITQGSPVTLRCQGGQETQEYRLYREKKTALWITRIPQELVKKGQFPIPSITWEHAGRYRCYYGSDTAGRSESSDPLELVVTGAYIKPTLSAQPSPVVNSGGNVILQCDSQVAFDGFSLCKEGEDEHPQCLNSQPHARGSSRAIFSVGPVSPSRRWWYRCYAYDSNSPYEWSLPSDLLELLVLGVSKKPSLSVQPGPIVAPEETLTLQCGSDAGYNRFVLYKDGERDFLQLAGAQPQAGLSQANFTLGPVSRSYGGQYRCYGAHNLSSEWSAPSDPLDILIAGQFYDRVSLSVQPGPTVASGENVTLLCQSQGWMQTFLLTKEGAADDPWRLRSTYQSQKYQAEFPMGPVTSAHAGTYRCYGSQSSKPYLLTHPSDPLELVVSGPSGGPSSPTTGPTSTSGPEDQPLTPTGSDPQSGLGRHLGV
LILRA6 on reporter cells, sequence (Q6PI73 24-481): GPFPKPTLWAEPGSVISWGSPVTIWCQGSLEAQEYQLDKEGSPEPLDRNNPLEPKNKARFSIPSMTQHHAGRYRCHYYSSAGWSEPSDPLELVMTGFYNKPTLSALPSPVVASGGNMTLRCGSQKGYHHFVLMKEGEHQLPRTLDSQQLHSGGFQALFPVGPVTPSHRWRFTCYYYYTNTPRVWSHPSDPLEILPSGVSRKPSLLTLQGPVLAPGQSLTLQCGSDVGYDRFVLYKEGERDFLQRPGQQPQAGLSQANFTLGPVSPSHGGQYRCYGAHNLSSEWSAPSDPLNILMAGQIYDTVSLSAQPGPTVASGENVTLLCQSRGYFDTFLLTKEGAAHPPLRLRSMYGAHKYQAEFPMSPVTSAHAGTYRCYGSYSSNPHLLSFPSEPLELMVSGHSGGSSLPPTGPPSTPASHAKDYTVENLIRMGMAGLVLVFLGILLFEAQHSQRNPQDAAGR
LILRB2 on reporter cells, sequence (Q8N423 22-597): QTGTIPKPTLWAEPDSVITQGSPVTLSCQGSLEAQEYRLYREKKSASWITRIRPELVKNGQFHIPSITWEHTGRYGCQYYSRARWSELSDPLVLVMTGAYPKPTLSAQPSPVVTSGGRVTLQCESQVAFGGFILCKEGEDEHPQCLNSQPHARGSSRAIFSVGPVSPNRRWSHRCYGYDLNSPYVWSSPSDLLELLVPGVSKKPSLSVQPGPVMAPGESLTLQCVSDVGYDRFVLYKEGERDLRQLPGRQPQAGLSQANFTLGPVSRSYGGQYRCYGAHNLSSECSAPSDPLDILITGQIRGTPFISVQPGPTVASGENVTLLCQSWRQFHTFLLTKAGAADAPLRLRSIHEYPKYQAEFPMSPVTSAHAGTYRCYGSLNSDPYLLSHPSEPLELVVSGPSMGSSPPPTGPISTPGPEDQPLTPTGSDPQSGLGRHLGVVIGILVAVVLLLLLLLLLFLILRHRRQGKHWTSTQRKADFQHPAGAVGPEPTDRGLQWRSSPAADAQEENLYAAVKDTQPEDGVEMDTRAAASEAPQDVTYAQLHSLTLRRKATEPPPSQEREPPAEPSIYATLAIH
LILRB1 expressed on cell surface (human), sequence (Q8NHL6 24-650 limits assumed): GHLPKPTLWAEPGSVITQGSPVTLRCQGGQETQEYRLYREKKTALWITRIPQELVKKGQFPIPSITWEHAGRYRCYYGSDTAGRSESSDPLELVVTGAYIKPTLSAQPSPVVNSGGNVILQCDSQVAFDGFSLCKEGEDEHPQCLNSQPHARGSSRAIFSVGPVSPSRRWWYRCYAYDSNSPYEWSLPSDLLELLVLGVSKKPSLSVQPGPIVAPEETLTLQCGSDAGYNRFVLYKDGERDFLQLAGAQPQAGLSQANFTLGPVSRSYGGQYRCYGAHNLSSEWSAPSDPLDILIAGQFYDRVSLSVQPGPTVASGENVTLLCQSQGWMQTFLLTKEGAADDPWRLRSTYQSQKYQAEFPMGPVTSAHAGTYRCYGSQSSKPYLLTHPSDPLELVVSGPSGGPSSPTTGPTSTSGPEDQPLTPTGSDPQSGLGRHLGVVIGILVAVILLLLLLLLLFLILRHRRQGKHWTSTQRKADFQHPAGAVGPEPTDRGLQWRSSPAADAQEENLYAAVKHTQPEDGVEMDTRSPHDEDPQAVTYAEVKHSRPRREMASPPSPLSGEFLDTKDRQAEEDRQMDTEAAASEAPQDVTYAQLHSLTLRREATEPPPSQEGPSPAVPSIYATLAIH
LILRA1 on reporter cells, sequence (O75019 17-489 limits assumed): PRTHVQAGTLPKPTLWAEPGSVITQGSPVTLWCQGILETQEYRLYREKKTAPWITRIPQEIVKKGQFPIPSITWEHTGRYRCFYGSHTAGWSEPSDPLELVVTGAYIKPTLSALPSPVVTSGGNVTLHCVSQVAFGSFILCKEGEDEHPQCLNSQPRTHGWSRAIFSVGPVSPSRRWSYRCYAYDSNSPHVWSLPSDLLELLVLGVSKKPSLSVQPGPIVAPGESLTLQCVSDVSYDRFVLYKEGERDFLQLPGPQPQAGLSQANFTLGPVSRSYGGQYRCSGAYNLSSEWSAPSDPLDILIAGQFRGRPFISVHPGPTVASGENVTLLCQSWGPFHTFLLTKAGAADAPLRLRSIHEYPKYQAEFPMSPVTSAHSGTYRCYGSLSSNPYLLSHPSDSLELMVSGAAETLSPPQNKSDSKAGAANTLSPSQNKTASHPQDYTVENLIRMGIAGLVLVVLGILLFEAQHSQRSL
LILRA5 on reporter cells, sequence (A6NI73 42-299): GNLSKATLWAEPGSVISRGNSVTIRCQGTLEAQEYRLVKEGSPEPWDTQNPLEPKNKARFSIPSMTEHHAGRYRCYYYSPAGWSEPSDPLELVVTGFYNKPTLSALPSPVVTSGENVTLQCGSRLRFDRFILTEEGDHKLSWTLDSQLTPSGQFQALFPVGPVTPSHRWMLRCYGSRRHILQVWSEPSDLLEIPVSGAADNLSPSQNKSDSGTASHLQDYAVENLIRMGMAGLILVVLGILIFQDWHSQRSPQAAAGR
LILRA2 on reporter cells, sequence (Q8N149 24-483): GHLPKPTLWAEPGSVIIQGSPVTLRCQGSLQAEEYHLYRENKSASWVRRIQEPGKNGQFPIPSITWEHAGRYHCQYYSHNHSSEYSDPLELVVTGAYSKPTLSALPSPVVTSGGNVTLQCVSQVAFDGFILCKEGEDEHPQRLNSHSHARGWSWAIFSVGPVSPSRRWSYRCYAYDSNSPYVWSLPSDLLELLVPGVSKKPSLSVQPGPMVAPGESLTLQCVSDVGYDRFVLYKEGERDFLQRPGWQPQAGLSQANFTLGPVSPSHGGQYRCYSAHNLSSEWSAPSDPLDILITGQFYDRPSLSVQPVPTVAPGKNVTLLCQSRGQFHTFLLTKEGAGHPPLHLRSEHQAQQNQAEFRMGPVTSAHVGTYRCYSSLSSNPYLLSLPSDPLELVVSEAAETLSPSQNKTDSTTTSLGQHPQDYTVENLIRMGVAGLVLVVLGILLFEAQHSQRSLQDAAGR

Row | OD450 [1] [OD450] | pKd [2] | percent of cells in the gate [3] [%] | percent of cells in the gate [4] [%] | percent of cells in the gate [5] [%] | percent of cells in the gate [6] [%] | percent of cells in the gate [7] [%] | percent of cells in the gate [8] [%] | percent of cells in the gate [9] [%] | percent of cells in the gate [10] [%] | percent of cells in the gate [11] [%] | percent of cells in the gate [12] [%] | Substance
1 | 0.1 |  |  |  |  |  |  |  |  |  |  |  | Ctrl
2 |  | 8.29 | 1.22 | 1.58 | 0.867 | 0.273 | 0.524 | 98.8 | 0.219 | 0.16 | 1.25 | 0.558 | GHI/75 (commercial anti-LILRB1 monoclonal antibody)
3 |  | 8.08 | 80.8 | 1.52 | 0.196 | 0.144 | 0.0568 | 98.5 | 0.343 | 0.301 | 85.3 | 0.0127 | HP-F1 (commercial anti-LILRB1 monoclonal antibody)
4 |  |  | 0.249 | 0.65 | 0.239 | 0.199 | 0.466 | 96.3 | 0.282 | 0.27 | 0.334 | 0.359 | R&D 292319 (antibody)
